Data taken from patent publication US6376210B1, “Methods and compositions for assaying analytes” (General Atomics, priority 1999, dated 2002).

Test system: human SAH hydrolase
Test: SAH hydrolase activity assay, hydrolytic direction (kinetic constants for SAH)
Format: biochemical
Details: substrate SAH; wild type vs mutant SAH hydrolase
Method: The cell-free extracts from colonies that inducibly overexpressed mutant SAH hydrolase proteins were chromatographed on a monoQ column (HR5/5) equipped with FPLC system. Proteins were eluted with a linear gradient of NaCl from 0 to 1 M in 10 mM sodium phosphate buffer, pH 7.0 over 35 min. The major protein peak that eluted at the same or close retention time as that of the wild type SAH hydrolase was collected. An aliquot collected mutant SAH hydrolase (1-10 μg) was incubated with [^3H]SAH (10 mCi/mmole, 200 μM) and 30 μM of 5, 5′-dithiobis (2-nitrobenzoic acid) (DTNB) at room temperature for 5-30 min.
The reaction solution was filtered through a membrane of molecular weight cut-off at 30,000 by centrifugation. The filtrate was measured at 412 nm for Hcy formation (enzyme activity) and the [^3H] radioactivity on the membrane was measured by scintillation counting after membrane washing with 1 ml of 50 mM phosphate buffer, pH 7.0.
The mutant hydrolases that show high radioactivity on the membrane and low O.D. at 412 nm of the filtrate relative to the wild type enzyme were selected as candidates for further characterization including determination of Km or Kd and binding energy (ΔG).
The assay of SAH hydrolase activity in the hydrolytic direction was performed as described in Yuan et al., J. Biol Chem., 271:28008-28016, 1996). The assay measures the hydrolysis of SAH into Ado and Hcy. The reaction product Hcy was derivatized by thiol specific reagent DTNB for colometric determination at 412 nm. The assay for SAH hydrolase in the synthetic direction was measured by the formation of SAH from substrate Ado and Hcy using HPLC (see, Yuan et al., J. Biol. Chem., 268:17030-17037 (1993). One unit of the enzyme activity was defined as the amount of enzyme that can hydrolyze or synthesize 1 μmole of SAH/min/mg.

| Molecule | Kcat (SAH) | Km |
| --- | --- | --- |
| wild type: wild type human placental SAH hydrolase (SEQ ID No. 1), recombinant from E. coli (protein, listed as Homo sapiens, Human S-adenosylhomocysteine hydrolase protein sequence) MSDKLPYKVADIGLAAWGRKALDIAENEMPGLMRMRERYSASKPLKGARIAGCLHMTVETAVLIETLVTLGAEVQWSSCNIFSTQNHAAAAIAKAGIPVYAWKGETDEEYLWCIEQTLYFKDGPLNMILDDGGDLTNLIHTKYPQLLPGIRGISEETTTGVHNLYKMMANGILKVPAINVNDSVTKSKFDNLYGCRESLIDGIKRATDVMIAGKVAVVAGYGDVGKGCAQALRGFGARVIITEIDPINALQAAMEGYEVTTMDEACQEGNIFVTTTGCIDIILGRHFEQMKDDAIVCNIGHFDVEIDVKWLNENAVEKVNIKPQVDRYRLKNGRRIILLAEGRLVNLGCAMGHPSFVMSNSFTNQVMAQIELWTHPDKYPVGVHFLPKKLDEAVAEAHLGKLNVKLTKLTEKQAQYLGMSCDGPFKPDHYRY | 3.8 S^−1 | 7.9 µM |
| F302S: mutant human SAH hydrolase, Phe302 to Ser; substrate trapping enzyme (protein, UniProt P23526 2-432, looked up, variant F302S) Adenosylhomocysteinase: SDKLPYKVADIGLAAWGRKALDIAENEMPGLMRMRERYSASKPLKGARIAGCLHMTVETAVLIETLVTLGAEVQWSSCNIFSTQDHAAAAIAKAGIPVYAWKGETDEEYLWCIEQTLYFKDGPLNMILDDGGDLTNLIHTKYPQLLPGIRGISEETTTGVHNLYKMMANGILKVPAINVNDSVTKSKFDNLYGCRESLIDGIKRATDVMIAGKVAVVAGYGDVGKGCAQALRGFGARVIITEIDPINALQAAMEGYEVTTMDEACQEGNIFVTTTGCIDIILGRHFEQMKDDAIVCNIGHSDVEIDVKWLNENAVEKVNIKPQVDRYRLKNGRRIILLAEGRLVNLGCAMGHPSFVMSNSFTNQVMAQIELWTHPDKYPVGVHFLPKKLDEAVAEAHLGKLNVKLTKLTEKQAQYLGMSCDGPFKPDHYRY | 0.1 S^−1 | 1 µM |
